According to the DeepSol protein solubility set:

Assay: soluble on expression in E. coli; label from the status in PepcDB or PDB records

Sequence | soluble on expression in E. coli
MYTHNSSDSIDCNIQSLYRGPQPGRYVRPTGKAVKQVKMEPYSPYSWGDKPYHSLNYYLKQTFGEKIYKLALDGAMTCPNRDGTLGTGGCIFCSGGGSGDFAEPQHASVTEQIEAAKARVSAKIKNGRYIAYFQSYTNTYAPVDYLEALFREAVSHPDIAALSIGTRPDCLPPQVIRLLKEINKEKPVWIELGLQTIHESTAELIRRGYELPCFIDAVRRLKEAGLTVIVHVILGLPGETEDMMLETIRFLANHTPPVDGIKLQLLHVLKGTKLAALYEAAPFPVMTMEEYIDLILKCIRLLPPHIVIHRLSGDGPKKLLIAPEWSGNKRLFLNSLTRALRETGAYQGEWHRPRQP | not soluble
MYVCKHCGSAMNKDVEIDIVGIKGNTLYVGECKWSNKKIDVRVLDRLRSKVPYLLKDLQVDNLSVVYYLFSRSGFDGLKETEEVKLVELKDLFR | not soluble
MYVCLCHAITDTQIKNAVSQGDTSLADVKKRLGVADQCGKCARMAVQIIQNQLEIEPKYYEVA | soluble
MYVENSYLSKQLCFLFYVSSKEIIKKYTNYLKEYDLTYTGYIVLMAIENDEKLNIKKLGERVFLDSGTLTPLLKKLEKKDYVVRTREEKDERNLQISLTEQGKAIKSPLAEISVKVFNEFNISEREASDIINNLRNFVSKNFDYSDKK | not soluble
MYVLIGGAGLIGQQLARQVLDQGHTVAVIDQDPQVCKMVRDRLGAMAFEGSAVNTDILLEAGICRADAVAAVLRQDALNLALVTLACHYGVSRIISRISQQDFIEPMRLAGAHHIISTVDLVVSTMVNAIECPQVESMLHFEQGQIEVFKLTLDSQSPVIGRSVAAIAQDRNFPSSSLIIGYQSHPQADLVIPSGNTVLEANATVLLATKPGLVQSLVNFLMPSLFSPLEHHHHHH | not soluble
MYVLIGGAGLVGLTLAQKLVELGHTVAIIDVDHTACRYAREQVGAMAFEGSAVSTEVLLEAGIRKADALAAVLRNDALNLAMVMLAKHYGVSHILSRMRHADFAQPLRLAGANHVISTVELSVSTMVNAIEYPQVESMMHFEQGQIEVLKISIPNSCYVANRSLAEIAQDSRFPSGSLIIGYQPHPHEDLVIPNGSTVLESGSTILIATKPGSLHQVIDFIEGCKLEHHHHHH | not soluble
MYVYDEYDQRIVEDRVKQFRDQTRRYLAGELTGEEFRPLRLQNGLYIQRYAPMLRIAVPYGLLSSRQLRKLAQIARDYDKGYAHISTRQNVQFNWPELEDVPEILAELATVQMHAIQTSGNCIRNTTTDQFAGVARDELVDPRPWCEIIRQWSTFHPEFAHLPRKFKIAVNGAVSDRAAIEVHDIGLEAVKNEAGELGFRVSVGGGLGRTPIVGSFINEFLPWQHLLGYLDAILRVYNRYGRRDNKYKARIKILVKALTPEVFAERVEAEWANLKDGPSTLTEAEVQRVAAHFVDPAYKALDDLDESLARLDAEHPGFARWRARNTFAHKKPGYVAVTLSLKPTGTAPGDVTDKQLEAIADLADRYSFGEVRNSHNQNIILADVEQGELFALWGELRELGFATPNVGLLTDIICCPGGDFCSLANAKSIPIAEAIQRRFDNLDYLFDIGDIDLNISGCMNACGHHHVGHIGILGVDKKGAEFYQVSLGGSSARDASLGQILGPSFAQEQMADVIDKIIQVYVERRTEEEPFIDTFRRIGIDPFKERVYAAN | not soluble
NAADGIFFPALEQNMMGAVLINENDEVMFFNPAAEKLWGYKREEVIGNNIDMLIPRDLRPAHPEYIRHNREGGKARVEGMSRELQLEKKDGSKIWTRFALSKVSAEGKVYYLALVRDAS | soluble
NEFELGTRGSSRVDLQEQRSVKTRVSLDDLFEQIKQGEMKELNLIVKADVQGSVEALVAALQKIDVEGVRVKIIHAAVGAITESDISLATASNAIVIGFNVRPDANAKRAAESEKVDIRLHRIIYNVIEEIEAAM | soluble
NEIVSGKLRIAASASFGAALLSQTLIEFRLQHPQVSVEVIFTEAPLDLIEAGFDIAFYFTDTPPEGYVGHQLRTLHCKPIAHRSYLADKPNVSTPEDLGDLEHILYKSRDLVLDKWTFTHKQTQQQCRIELESTLSFNLVQSMLDATLAGCGVAMLDEFALAKLESAQKEQLVSLLPDWQTDAILPLYLLYPKREHLPRRTRAFIDHFRNIYSVGE | not soluble
NGVWVIGEQREGKINPVTIELIGEGRKLADQLGKELAVVIAGYEVEKEVKELLHYSVDKVYYINDPLLKDFTTDGYAISIANLIERKKPEVVLVGATSIGRDIAPRIAGKVGTGLTADCTKLEIDSTDNKLLQTRPAFGGNLMATIVCPKNRPQMSTVRPGVMAKAVRNESETGILEVVTPELTEKMIRTRLVEILPQEKKSVN | soluble
NIQYEERVSVQADLGSQTLHVRGLIDSGNQLYDPLTKTPVMIIYIDKLEPIFGTAETMIIRNTDPLEAIEQLDDSFRFLDKMRLIPYRGVGQQNQFLLCVKPDHVTIMTKEEMISADKCLIGISTTKLSADGEFDAIIHPKMLSGKAVKH | not soluble
NKDLLWTTSLNIGHNKNKLTKLDGEQQEIISGVSIHRVGQPYYSIYAYEYAGVDPQTGKELYYINGEDGSRETTTNSAAANKTIIGSIEPKVQGGLTNYVSWKFIDFNLTLTYSLGGHAYDYATWLQSNGGTYHYLGNVPAYYKMEDTWQKTGDNAKLPQFAYGNANKASSRWLMSTDHLRVKNMTLGFTLPQSWSSKAGISKLRAYVSGNNLLTWKKKSLYVDPEVPVDGLCTFETPALRTVTFGLEIGF | not soluble
NLSELTPYILCSICKGYLIDATTITECLHTFCKSCIVRHFYYSNRCPKCNIVVHQTQPL | soluble
NLYFQSARFALTVVRHGETRFNKEKIIQGQGVDEPLSETGFKQAAAAGIFLNNVKFTHAFSSDLMRTKQTMHGILERSKFCKDMTVKYDSRLRERKYGVVEGKALSELRAMAKAAREECPVFTPPGGETLDQVKMRGIDFFEFLCQLILKEADQKEQFSQGSPSNCLETSLAEIFPLGKNHSSKVNSDSGIPGLAASVLVVSHGAYMRSLFDYFLTDLKCSLPATLSRSELMSVTPNTGMSLFIINFEEGREVKPTVQCICMNLQDHLNGLTETR | soluble
NNSQFFMGIPRLKFPADAPSRSTLKLEEAFHVFIPRDEWDERLAPGMWGVDLGACPGGWTYQLVKRSMFVHCVDNGMMADSLMETGQIKHHMVDGFKFEPDRKNVTWIVCDMVEKPARVAHLMGQWLLKGWAKEAIFNLKLPMKGRYDEVLQDLENLKMFLIENKVKFKLQAKHLYHDREEITIHIQCLSNISPH | not soluble
NPSTTKAPLADYLAHLPLAEEERERLGESASFSELHARLAGAEGAAADAGGDPALASVRARLQLGTPELDDAEMFGVDAQGRTFLKISPPIRRTKVIPEPWRTNILVRGWRRLTGRSNPPKPKRALPRARWQ | not soluble
NTIQQLMMILNSASDQPSENLISYFNNCTVNPKESILKRVKDIGYIFKEKFAKAVGAGCVAIGSQRYKLGVRLYYRVMESMLKSEEERLSIQNFSKLLNDNIFHMSLLACALEVVMATYSRSTSQNLDSGTDLSFPWILNVLNLKAFDFYKVIESFIKAEGNLTREMIKHLERCEHRIMESLAWLSDSPLFDLIKQSKTREGKSTSLSLFYKKVYRLAYLRLNTLCERLLSEHPELEHIIWTLFQHTLQNEYELMRDRHLDQIMMCSMYGICKVKNIDLKFKIIVTAYKDLPHAVQETFKRVLIKEEEYDSIIVFYNSVFMQRLKTNILQYASTRPPTLSPIPHI | soluble
NVDKAIKFGQIQNKAVTLGQGGFFNDDFSDGQAGVHYPDLDNAEPMPESEKLQYEKRLVGFYLSHHPLDRFRRDWEAFASLTLDKRDVTPSKL | not soluble
NVKQQFFPPSNTPMFYVDMWMPEGTDIRQTIKQAEKVESYIRQQDDIDFVSVSIGQGLQRFALTYQPEKSYEAYAQFQVRTTDRDNMFKLLHKLDDNLAKTFDEPTFQFKLMEFGPSPASKIEARITGPDPKVLRELAVQVEDILHTDPGARNIRHDWRERTKELVPVFNESKARRLGISKEDLSSTLQMAFGGSTFGVLRDGTHTLPIMMRLPEAERVDFESLQNVKIWSPSLQTYIPVDQIIDGVELDWSEPLIQRRDRKRTLTVLADHDVLSDDTAASLFARVQPKVMALHIPEGYEITWGGEYESSKDAQE | not soluble
NWLTADGAAGPSGEGGFAAEKDRYHLYVSLACPWAHRTLIMRKLKGLEPFLPVSVVNPLMLENGWTFDDSFPEATGDTLYQHDFLYQLYLHADPHYTGRVTVPVLWDKKQQTIVSNESAEIIRMFNTAFDGLGARAGDYYPPALREQIDELNGWIYDNVNN | not soluble
PCRECGRPMMIRTASTGVFLGCSGYSLPPKERCKATVNLIPGDEIAADDEGESESRVLRGKHRCPICSTAMDAYLLDEKHKLHICGNNPDCPGYEIEEGQYRIKGYEGPSLECDKCGSEMQLKTGRFGKFFGCTNPTCKNTRKLLK | not soluble
PDSAVVRIHSSSGTTGKPVIIPYTRNDVDTWAELMMRCYMLAGLTNQDRIQITPGYGLWTAGIGFQLGAERLGAMAIPTGPGNTEKQLEMLVDLKTTALASTSSYALLLAEEIEKRGLKDRIHLRTGVIGSERWSEKMRSRIENELGIETFDIYGLTEIYGPGIALDCSYHEGMHYW | not soluble
PEYQANVQILVNRKHSSAGADLTGQQADVQMITTYKELITKPVVLKPARQTLMAETDIRRSLESLKQTVSVTSTANSQVFSIGVRDKNAKASAMIANQIAATFKDQVQHIIKVNNVTIVAPAETPDQSVAPKK | not soluble
PFEGNATEVFTDGYSMLYSLMKEISKAKHHIHLQFYIFEDDPAGRLLRDLLIDKARQGVEVRLLYDDVGCWKVPHAFFDEMRGAGIEARSFLKVRFPLFTSKVNYRNHRKIVVIDGRVAYTGGMNIALRYMKGFPWGIWRDTHIKIEGKAVYGLQTAFLTDWYVVDRTLITSSRYFPEVGIFGKALIQIVTSDP | not soluble
PFSFCRRIYLPTDLRSYPSVRNVLIHEQEHTRATHFVDLLIAEVACMLFWFNPFAWALKRDMQRNLEFLADRAVLLRGVSRREYQYELL | not soluble
PGAKVRVFHLLPFRREDLVPEEVLASVRDYLRTTKEQGLTMRVAMHGGNTEGDFSVSTAQALKGLFANEGIPLEFDETCANRTSETLLGAVILDDNSTHFIKHLVAQ | not soluble
PGRPTMMISTTAMNTALLQWHPPKELPGELLGYRLQYCRADEARPNTIDFGKDDQHFTVTGLHKGTTYIFRLAAKNRAGLGEEFEKEIRTPEDL | soluble
PGSIWAKAIEHANEERKKPGADGRGDAFCYFVGSRAAGKSTLLNRFLYPTRAEVPKPSEGIEYTYARKPAAFDHEKKDLAHIWEVGGSQEFAEEIVNSDQLFLTAKQVTTAVVVIVVDLSDPAGVLPTLLYWVEQVKKKLGSTYEKFEKKGLQLPEQLRQRAKSKLYSANEDKDTVYHSGISLVIAATKYDAFKNQDPEVKKVMSRVLRYIAHAHGAFLCYLSGLHGASEGSGAEDAALLDNFTRLMNHLIFTGLEKKPVLKMQPQIDHTGPIMVPAGFDTFKSVGRPRSQGEGTVAGGLAEWRELFEKMFPGVREKEAKMSAKGAKFVIPEQYKEEEVDAVRQRKVTDLENFRKEQAAAVEAAKKKALMAKAQQAEAAAKK | not soluble
